In this assay the target is T1, recombinant CD22 protein corresponding to the whole extracellular domain of CD22 (human; mouse, UniProt P20273 20-687).
T1 construct: range 20-687; also called full length recombinant CD22 protein; CD22 recombinant protein (full length)
The assay can be described thus: flow cytometry, CAR T cells stained with recombinant full length CD22 protein. (In flow cytometry, cells or beads pass a laser one at a time.)

Description: CAR detection at the surface of T-cells is performed using a recombinant protein consisting on the extracellular domain of the human CD22 protein (whole protein, distal portion of CD22 or proximal portion of CD22) fused together with a murine IgG1 Fc fragment. Binding of this protein to the CAR molecule is detected with a PE-conjugated secondary antibody (Jackson Immunoresearch) targeting the mouse Fc portion of the protein, and analyzed by flow cytometry.
Then, CAR positive cells frequency (% of CAR-expressing cells over the total number of cells) was assessed by flow cytometry using a recombinant CD22 protein corresponding to the membrane proximal domain of CD22 or a recombinant CD22 protein corresponding to the whole extracellular domain of CD22 (FIG. 5).

B1: anti-CD22 CAR7 (prot CAR7) (other)
chain: QVQLQQSGPGLVEPSQTLSLTCAISGDSVSSDSVAWNWIRQSPSRGLEWLGRTYYRSTWYNDYAGSVKSRITINPDTSKNQFSLQLNSVTPEDTAVYYCARDRNGMDVWGQGTMVTVSGGGGSGGGGSGGGGSDIVMTQSPSSLSASVGDRVTITCRASQSISSYLNWYQQKPGKAPKLLIYDASNLETGVPSRFSGSGSGTDFTFTITSLQPEDFATYYCQQSYTTPLTFGGGTKVEIKTTTPAPRPPTPAPTIASQPLSLRPEACRPAAGGAVHTRGLDFACDIYIWAPLAGTCGVLLLSLVITLYCKRGRKKLLYIFKQPFMRPVQTTQEEDGCSCRFPEEEEGGCELRVKFSRSADAPAYQQGQNQLYNELNLGRREEYDVLDKRRGRDPEMGGKPRRKNPQEGLYNELQKDKMAEAYSEIGMKGERRRGKGHDGLYQGLSTATKDTYDALHMQALPPR
notes: Single-chain CAR on T cells; range counted on the printed copy; also called CAR7 5
As for B1, the binding result is on record as “binds”.

B2: anti-CD22 CAR2 (prot CAR2) (other)
chain: QVQLQQSGPGLVKPSQTLSLTCAISGDSVSSNSAAWNWIRQSPSRGLEWLGRTYYRSKWYNDYAVSVKSRITINPDTSKNQFSLQLNSVTPEDTAVYYCARASMTGGYSYGDAFDIWGQGTLVTVSGGGGSGGGGSGGGGSAIRMTQSPSSLSASVGDRVTITCRASQSISSYLNWYQQKPGKAPKLLIYAASSLQSGVPSRFSGSGSGTDFSLTISSLQPEDSATYYCQQTYSTPLTFGQGTKVEIKTTTPAPRPPTPAPTIASQPLSLRPEACRPAAGGAVHTRGLDFACDIYIWAPLAGTCGVLLLSLVITLYCKRGRKKLLYIFKQPFMRPVQTTQEEDGCSCRFPEEEEGGCELRVKFSRSADAPAYQQGQNQLYNELNLGRREEYDVLDKRRGRDPEMGGKPRRKNPQEGLYNELQKDKMAEAYSEIGMKGERRRGKGHDGLYQGLSTATKDTYDALHMQALPPR
notes: Single-chain CAR on T cells; range counted on the printed copy
Consider B2, for which the binding result is recorded as “binds”.

B3: anti-CD22 CAR3 (prot CAR3) (other)
chain: QVQLQQSGPGLVEPSQTLSLTCAISGDSVSSDSVAWNWIRQSPSRGLEWLGRTYYRSTWYNDYAGSVKSRITINPDTSKNQFSLQLTSVTPEDTAVYYCTRSRHNTFRGMDVWGQGTTVTVSGGGGSGGGGSGGGGSDIVMTQSPSSLSASVGDRVTITCRASQTISSYLNWYQQKPGKAPKLLIYDASSLQSGVPSRFSGSGSGTDFTLTINSLQPEDFATYYCQQSYTTPITFGQGTRLEIKTTTPAPRPPTPAPTIASQPLSLRPEACRPAAGGAVHTRGLDFACDIYIWAPLAGTCGVLLLSLVITLYCKRGRKKLLYIFKQPFMRPVQTTQEEDGCSCRFPEEEEGGCELRVKFSRSADAPAYQQGQNQLYNELNLGRREEYDVLDKRRGRDPEMGGKPRRKNPQEGLYNELQKDKMAEAYSEIGMKGERRRGKGHDGLYQGLSTATKDTYDALHMQALPPR
notes: as for B2
For B3, the binding result is reported as “binds”.

B4: anti-CD22 CAR15 (prot CAR15) (other)
chain: QVQLVQSGAEVKKPGASVKVSCKASGYTFTSYYMHWVRQAPGQGLEWMGIINPSGGSTSYAQKFQGRVTMTRDTSTSTVYMELSSLRSEDTAVYYCAREDSGSGAFDIWGQGTLVTVSGGGGSGGGGSGGGGSEIVLTQSPLSLPVTPGEPASISCRSSRSLLSYHGYNYLDWYLQKPGQSPQLLIFVGSNRAPGVPDRFSGSGSGTDFTLNISRVEAEDVGVYYCMQSLQTPRTFGQGTKVEIKTTTPAPRPPTPAPTIASQPLSLRPEACRPAAGGAVHTRGLDFACDIYIWAPLAGTCGVLLLSLVITLYCKRGRKKLLYIFKQPFMRPVQTTQEEDGCSCRFPEEEEGGCELRVKFSRSADAPAYQQGQNQLYNELNLGRREEYDVLDKRRGRDPEMGGKPRRKNPQEGLYNELQKDKMAEAYSEIGMKGERRRGKGHDGLYQGLSTATKDTYDALHMQALPPR
notes: Original clone number 15; Single-chain CAR on T cells; range counted on the printed copy; also called CAR15 10
With B4, the binding result is recorded as “binds”.

B5: anti-CD22 CAR8 (prot CAR8) (other)
chain: QVQLQQSGPGLVKPSQTLSLTCAISGDSVSSSSAAWNWIRQSPSRGLEWLGRTYYRSAWYNDYAVSVKSRITINPDTSKNQFSLQLNSVTPEDTAVYYCARESVLLDGMDVWGRGTTVTVSGGGGSGGGGSGGGGSAIRMTQSPSTLSASVGDRVTITCRASQSISTYLNWYQQKAGKAPRLLIHDASSLQSGVPSRFSGSGSGTDFTLTISSLQPEDFATYYCQQSYSTPLTFGGGTKVEIKTTTPAPRPPTPAPTIASQPLSLRPEACRPAAGGAVHTRGLDFACDIYIWAPLAGTCGVLLLSLVITLYCKRGRKKLLYIFKQPFMRPVQTTQEEDGCSCRFPEEEEGGCELRVKFSRSADAPAYQQGQNQLYNELNLGRREEYDVLDKRRGRDPEMGGKPRRKNPQEGLYNELQKDKMAEAYSEIGMKGERRRGKGHDGLYQGLSTATKDTYDALHMQALPPR
notes: Original clone number 8; Single-chain CAR on T cells; range counted on the printed copy; also called CAR8 6
For B5, the binding result was “binds”.

B6: anti-CD22 CAR9 (prot CAR9) (other)
chain: QVQLQQSGPGLVQPSQTLSLTCVISGDSVSSNSATWNWIRQSPSRGLEWLGRTYYRSKWYNDYAVSVKSRITINPDTSKNQFSLQLNSVTPEDTAVYYCARDGDGGSYYDYYYYGMDVWGQGTTVTVSGGGGSGGGGSGGGGSDIQLTQSPSSLSTSVGDRVTITCRASQSISTYLNWYQQKPGKAPKLLIYAASNLQSGVPSRFSGSGSGTDFTLTISSLQPEDFATYFCQQSYTTPITFGQGTRLEIKTTTPAPRPPTPAPTIASQPLSLRPEACRPAAGGAVHTRGLDFACDIYIWAPLAGTCGVLLLSLVITLYCKRGRKKLLYIFKQPFMRPVQTTQEEDGCSCRFPEEEEGGCELRVKFSRSADAPAYQQGQNQLYNELNLGRREEYDVLDKRRGRDPEMGGKPRRKNPQEGLYNELQKDKMAEAYSEIGMKGERRRGKGHDGLYQGLSTATKDTYDALHMQALPPR
notes: Original clone number 9; Single-chain CAR on T cells; range counted on the printed copy; also called CAR9 7
For the molecule B6, the binding result is “binds”.

(Values after patent US20210100839A1 (CELLECTIS, published 2021).)
